Data on 3 molecules can be found in PMC7060239, “Two distinct modes of DNMT1 recruitment ensure stable maintenance DNA methylation” (Nature Communications, 2020).

This assay has as its target T1, PHD finger of human UHRF1 (residues 299–366) (human, UniProt Q96T88 299-366).
T1 construct: UHRF1, human, PHD finger, residues 299–366; also called hPHD; UHRF1 PHD finger; source: recombinant, purified (glutathione Sepharose 4B, HiTrap Q HP, Superdex75); not shown: GST, N-terminal, cleaved; SUMO-1, N-terminal, cleaved
T1 sequence (looked up): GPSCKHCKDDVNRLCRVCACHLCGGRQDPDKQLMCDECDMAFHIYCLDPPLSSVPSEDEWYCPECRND
As to the kind of experiment: ITC; hPHD and PAF15_(2-11) or H3 peptides; VP-ITC; 10 mM HEPES-NaOH (pH 7.5), 150 mM NaCl, 0.25 mM TCEP; one-site model. To be noted: both partners purified. (ITC needs no label: the signal is the heat of the interaction.)

One may read the Kd as the free concentration of one partner at which half of the binding sites on the other are occupied at equilibrium, for simple one-to-one binding. Read a high Kd as a looser complex.

B1: N-terminal histone H3 peptide (peptide)
chain: ARTKQTARKST
modifications: Unmodified free N-terminus assumed (initiator Met removed). Peptide limits are not printed in the supplied text (ITC in Supplementary Fig. 2d). Mature H3 residues 1-11 taken by convention from UHRF1 …
Turning to B1, the affinity, expressed as Kd, was 1500 ± 100 nM.

B2: human PAF15 (residues 2–11) peptide (peptide, UniProt Q15004 2-11, looked up)
peptide: VRTKADSVPG
notes: PCNA-associated factor 15 (PAF15), human, residues 2–11; begins with 2VRTK5; also called hPAF15_(2-11); PAF15_(2-11); source: synthetic peptide (Toray Research Center)
In turn, B2 returned a Kd of 2200 ± 300 nM.

B3: hPAF15_(2-11)-K5A peptide (peptide, UniProt Q15004 2-11, looked up)
peptide: VRTAADSVPG
notes: PCNA-associated factor 15 (PAF15), human, residues 2–11; also called PAF15 K5A
In the case of B3, the binding result is recorded as “binds”.
